Source: doi:10.1101/2021.07.29.454387 (bioRxiv, 2021)

Tests used:
Assay in all cases: ITC
[1] = target: T1, PDZ domain of human PDLIM5 (residues 1-84) (human, UniProt Q96HC4 1-84)
T1 sequence: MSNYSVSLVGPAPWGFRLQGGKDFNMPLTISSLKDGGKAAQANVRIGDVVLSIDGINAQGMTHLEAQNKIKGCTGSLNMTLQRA

[2] = target: PDZ domain of human PDLIM7 (residues 1-84) (human, UniProt Q9NR12 1-84)
[3] = target: PDLIM7 PDZ domain (1-84) H63A (human, UniProt Q9NR12 1-84, H63A)
[4] = target: PDLIM7 PDZ domain (1-84) Q67A (human, UniProt Q9NR12 1-84, Q67A)
Sequence of PDLIM7 PDZ domain (1-84) Q67A (Q9NR12 1-84 Q67A): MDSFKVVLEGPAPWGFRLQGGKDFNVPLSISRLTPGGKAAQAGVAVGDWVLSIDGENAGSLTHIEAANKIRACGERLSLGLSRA

[5] = target: PDLIM7 PDZ domain (1-84) P11E (human, UniProt Q9NR12 1-84, P11E)
Sequence of PDLIM7 PDZ domain (1-84) P11E (Q9NR12 1-84 P11E): as the sequence (Q9NR12 1-84 Q67A) above, with P11E, A67Q counted along it

[6] = target: PDLIM7 PDZ domain (1-84) W14Y (human, UniProt Q9NR12 1-84, W14Y)
Sequence of PDLIM7 PDZ domain (1-84) W14Y (Q9NR12 1-84 W14Y): as the sequence (Q9NR12 1-84 Q67A) above, with W14Y, A67Q counted along it

[7] = target: T2, PDZ domain of human PDLIM1 (residues 1-84) (human, UniProt O00151 1-84)
T2 sequence: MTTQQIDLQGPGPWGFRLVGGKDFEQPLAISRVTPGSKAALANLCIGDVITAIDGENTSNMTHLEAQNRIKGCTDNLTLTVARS

[8] = target: T3, PDZ domain of human PDLIM2 (residues 1-84) (human, UniProt Q96JY6 1-84)
T3 sequence: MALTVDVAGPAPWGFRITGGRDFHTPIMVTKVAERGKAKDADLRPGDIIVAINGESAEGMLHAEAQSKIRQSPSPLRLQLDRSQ

[9] = target: T4, PDZ domain of human PDLIM3 (residues 1-84) (human, UniProt Q53GG5 1-84)
T4 sequence: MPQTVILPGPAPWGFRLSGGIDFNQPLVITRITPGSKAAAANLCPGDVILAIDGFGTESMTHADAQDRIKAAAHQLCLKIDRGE

[10] = target: T5, PDZ domain of human PDLIM4 (residues 1-84) (human, UniProt P50479 1-84)
T5 sequence: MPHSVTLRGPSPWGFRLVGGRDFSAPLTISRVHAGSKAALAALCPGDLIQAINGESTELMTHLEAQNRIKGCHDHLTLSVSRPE

Measured: binding result

Sequence of PDZ domain of human PDLIM7 (residues 1-84) (Q9NR12 1-84): as the sequence (Q9NR12 1-84 Q67A) above, with A67Q counted along it
Sequence of PDLIM7 PDZ domain (1-84) H63A (Q9NR12 1-84 H63A): as the sequence (Q9NR12 1-84 Q67A) above, with H63A, A67Q counted along it

HGNFAFEGIGDEDL [SNX17 C-terminal peptide (457-470) used for ITC]
binds: all assays above

HGNFAFEGIGDRDL [SNX17 C-terminal peptide E468R]
binds: [2]
